Test results from the Human Domainome abundance scans (Beltran et al. 2025).
± gives the uncertainty stated by the source.

B1: Histone-lysine N-methyltransferase SETD2, residues 2382 to 2430; numbered along this chain, Q9BYW2 (parent)
chain: SPPKPKTIVLPPNWKTARDPEGKIYYYHVITRQTQWDPPTWESPGDDAS

Variants of: B1
Assay: abundance fitness (aPCA) (normalised: wild type 0, dead -1); higher = more abundant; growth selection in yeast, the domain comes from the species named
Conditions: Homo sapiens

Point of comparison: SPPKPKTIVLPPMWKTARDPEGKIYYYHVITRQTQWDPPTWESPGDDAS, abundance fitness 0.064 ± 0.094. Against it:
- EPPKPKTIVLPPNWKTARDPEGKIYYYHVITRQTQWDPPTWESPGDDAS — lower, -0.534 ± 0.32
- YPPKPKTIVLPPNWKTARDPEGKIYYYHVITRQTQWDPPTWESPGDDAS — lower, -0.521 ± 0.28
- SPPKPKTIVLPPNWKTARDPEGKIYYYHVITRQTQWDPPTWESPGDQAS — higher, 0.257 ± 0.064
- SPPKPKTIVLPPNWKTARDPEGKIYYYHVITRQTQWDPPTWESPGDRAS — lower, -0.146 ± 0.041
- SPPKPKTIVLPPNWKTARDPEGKIYYYHVITRQTQWDPPTWESPGDGAS — within error, -0.002 ± 0.032
- SPPKPKTIVLPPNWKTARDPEGKIYYYHVITRQTQWDPPTWESPGDEAS — within error, 0.035 ± 0.051
- SPPKPKTIVLPPNWKTARDPEGKIYYYHVITRDTQWDPPTWESPGDDAS — lower, -0.185 ± 0.087
- SPPKPKTIVLPPNWKTARDPEGKIYYYHVITRITQWDPPTWESPGDDAS — lower, -0.551 ± 0.17
- SPPKPKTIVLPPNWKTARDPEGKIYYYHRITRQTQWDPPTWESPGDDAS — lower, -0.428 ± 0.05
- SPPKPKTIVLPPNCKTARDPEGKIYYYHVITRQTQWDPPTWESPGDDAS — lower, -1.02 ± 0.3
- SPPKPKTIVLPPNWKTARDPENKIYYYHVITRQTQWDPPTWESPGDDAS — lower, -0.555 ± 0.32
- SPPKPKTIVLPPNWKTARDPESKIYYYHVITRQTQWDPPTWESPGDDAS — lower, -0.297 ± 0.07
- SPPKPKTIVLPPNWKTARDPEIKIYYYHVITRQTQWDPPTWESPGDDAS — lower, -0.753 ± 0.29
- SPPKPKTIVLPPNWKTARDPEAKIYYYHVITRQTQWDPPTWESPGDDAS — lower, -0.844 ± 0.12
- SPPKPKTIVLPPFWKTARDPEGKIYYYHVITRQTQWDPPTWESPGDDAS — within error, 0.127 ± 0.082
- SPPKPKTIVLPPLWKTARDPEGKIYYYHVITRQTQWDPPTWESPGDDAS — within error, -0.039 ± 0.049
- SPPKPKTIVLPPQWKTARDPEGKIYYYHVITRQTQWDPPTWESPGDDAS — within error, -0.148 ± 0.13
- SPPKPKTIVLPPNWKTARDPDGKIYYYHVITRQTQWDPPTWESPGDDAS — within error, -0.136 ± 0.12
- SPPKPKTIVLPPNWKTARDPKGKIYYYHVITRQTQWDPPTWESPGDDAS — within error, 0.134 ± 0.068
- SPPKPKTIVLPPNWKTARDPEGKIYYYHVITRQTQWDPPTWESPGDDNS — within error, 0.153 ± 0.097
- SPPKPKTIVLPPNWKTARDPEGKIYYYHVITRQTQWDPPTWESPGDDTS — within error, 0.147 ± 0.041
- SPPKPKTIVLPPNWKTARDPEGKIYYYHVITRQTQWDPPTWESPGDDSS — within error, -0.027 ± 0.067
- SPPKPKTIVLPPNWKTARDPEGKIYYYHVITRQTQWDPPTWESPGDDYS — within error, 0.036 ± 0.048
- SPPKPKTIVLPPNWKTARDPEGKIYYYHVITRQTQWDPPTWESPGDDKS — within error, 0.091 ± 0.047
- SPPKPKTIVLPPNWKTARDPEGKIYYYHVITRQTQWDPPMWESPGDDAS — within error, 0 ± 0.044
- SPPKPKTIVLPPNWKTARDPEGKIYYYHVITRQTQWDPPYWESPGDDAS — lower, -0.123 ± 0.075
- SPPKPKTIVLPPNWKTARDPEGKIYYYHVITRQTQWDPPGWESPGDDAS — the same, 0.064 ± 0.054
- SPPKPKTNVLPPNWKTARDPEGKIYYYHVITRQTQWDPPTWESPGDDAS — within error, 0.112 ± 0.075
- SPPKPKTIVLPPNWKTARDPEGKIYYYHVITRQTQWDPPTWESPCDDAS — within error, -0.002 ± 0.074
- SPPKPKTIVLPPNWKTARDFEGKIYYYHVITRQTQWDPPTWESPGDDAS — lower, -0.398 ± 0.059
- SPPKPKTIQLPPNWKTARDPEGKIYYYHVITRQTQWDPPTWESPGDDAS — lower, -0.097 ± 0.054
- SPPKPKTIGLPPNWKTARDPEGKIYYYHVITRQTQWDPPTWESPGDDAS — lower, -0.167 ± 0.037
- SPPKPKTIPLPPNWKTARDPEGKIYYYHVITRQTQWDPPTWESPGDDAS — lower, -0.538 ± 0.15
- SPPKPKTIKLPPNWKTARDPEGKIYYYHVITRQTQWDPPTWESPGDDAS — within error, 0.022 ± 0.042
- SPPKPKTIVLPPNWKTARDPEGKWYYYHVITRQTQWDPPTWESPGDDAS — within error, -0.123 ± 0.27
- SPPKPKTIVLPPNWKTARDPEGKIYYYHVITRQTQWDPPTWFSPGDDAS — within error, 0.124 ± 0.1
- SPPKPKTIVLPPNWKTARDPEGKIYYYHVITRQTQWDPPTWNSPGDDAS — lower, -0.173 ± 0.038
- SPPKPKTIVLPPNWKTARDPEGKIYYYVVITRQTQWDPPTWESPGDDAS — lower, -0.991 ± 0.16
- SPPKPKTIVLPPNWKTARDPEGKIYYYGVITRQTQWDPPTWESPGDDAS — lower, -1.01 ± 0.12
- SPPKPKTIVLPPNWKTARDPEGKIYYYLVITRQTQWDPPTWESPGDDAS — lower, -1.09 ± 0.17
- SPPKPKTIVLPPNWKTARDPEGKIYYYDVITRQTQWDPPTWESPGDDAS — lower, -0.213 ± 0.059
- SPPKPKTIVLPPNWKTARDPEGKIYYYKVITRQTQWDPPTWESPGDDAS — lower, -0.971 ± 0.12
- SPPKPDTIVLPPNWKTARDPEGKIYYYHVITRQTQWDPPTWESPGDDAS — within error, -0.074 ± 0.14
- SPPKPLTIVLPPNWKTARDPEGKIYYYHVITRQTQWDPPTWESPGDDAS — lower, -0.339 ± 0.041
- SPPKPKTIVLPPNWKTARDPEGKIYYYHVIGRQTQWDPPTWESPGDDAS — lower, -0.927 ± 0.088
- SPPKPKTIVLPPNWKTARDPEGKIYYYHVIQRQTQWDPPTWESPGDDAS — lower, -0.627 ± 0.084
- SPPKPKTIVLPPNWKTARDPEGKIYYYHVIIRQTQWDPPTWESPGDDAS — lower, -0.945 ± 0.13
- SPPKPKTIVLPPNWKTARDPEGKIYYYHVIMRQTQWDPPTWESPGDDAS — lower, -0.862 ± 0.11
- SPPKPKTIVLPPNWKTARDPEGKIYYYHVITRQTCWDPPTWESPGDDAS — lower, -0.337 ± 0.085
- SPPKPKTIVLPPNWKTARDPEGKIYYYHVITRQTDWDPPTWESPGDDAS — lower, -0.869 ± 0.24
- SPPKPKTIVLPPNWKTARDPEGKIYYYHVITRQTEWDPPTWESPGDDAS — lower, -0.547 ± 0.09
- SPLKPKTIVLPPNWKTARDPEGKIYYYHVITRQTQWDPPTWESPGDDAS — within error, 0.105 ± 0.068
